Laboratory results from PMC6570480, “PLK4 promotes centriole duplication by phosphorylating STIL to link the procentriole cartwheel to the microtubule wall” (eLife, 2019).

Assays:
[1] = biological target: T1, Myc-GFP-STIL (wild type) phosphorylated in cells by co-expressed kinase active PLK4^Δ24-mCherry (human, UniProt Q15468 1-1287, phosphoserine at 428 and at 1116 (phosphorylated in cells by co-expressed kinase active PLK4^Δ24-mCherry; shown with pS428 and pS1116 antibodies)); experiment: co-IP; HEK293FT cells co-transfected, with kinase active or kinase dead PLK4^Δ24-mCherry where stated; lysis buffer 10 mM Tris pH 7.5, 0.1% Triton X-100, 250 mM NaCl, 1 mM EDTA, phosphatase inhibitors; Myc-GFP-STIL captured on beads coupled to GFP-binding protein; immunoblot; details: partners not purified
T1 construct: STIL, human; Further PLK4 sites may be phosphorylated (84 sites were found in vitro); also called WT STIL; phosphorylated STIL; source: HEK293FT, transfected together with kinase active PLK4^Δ24-mCherry, in lysate; not shown: Myc, N-terminal, kept; GFP, N-terminal, kept
T1 sequence (looked up): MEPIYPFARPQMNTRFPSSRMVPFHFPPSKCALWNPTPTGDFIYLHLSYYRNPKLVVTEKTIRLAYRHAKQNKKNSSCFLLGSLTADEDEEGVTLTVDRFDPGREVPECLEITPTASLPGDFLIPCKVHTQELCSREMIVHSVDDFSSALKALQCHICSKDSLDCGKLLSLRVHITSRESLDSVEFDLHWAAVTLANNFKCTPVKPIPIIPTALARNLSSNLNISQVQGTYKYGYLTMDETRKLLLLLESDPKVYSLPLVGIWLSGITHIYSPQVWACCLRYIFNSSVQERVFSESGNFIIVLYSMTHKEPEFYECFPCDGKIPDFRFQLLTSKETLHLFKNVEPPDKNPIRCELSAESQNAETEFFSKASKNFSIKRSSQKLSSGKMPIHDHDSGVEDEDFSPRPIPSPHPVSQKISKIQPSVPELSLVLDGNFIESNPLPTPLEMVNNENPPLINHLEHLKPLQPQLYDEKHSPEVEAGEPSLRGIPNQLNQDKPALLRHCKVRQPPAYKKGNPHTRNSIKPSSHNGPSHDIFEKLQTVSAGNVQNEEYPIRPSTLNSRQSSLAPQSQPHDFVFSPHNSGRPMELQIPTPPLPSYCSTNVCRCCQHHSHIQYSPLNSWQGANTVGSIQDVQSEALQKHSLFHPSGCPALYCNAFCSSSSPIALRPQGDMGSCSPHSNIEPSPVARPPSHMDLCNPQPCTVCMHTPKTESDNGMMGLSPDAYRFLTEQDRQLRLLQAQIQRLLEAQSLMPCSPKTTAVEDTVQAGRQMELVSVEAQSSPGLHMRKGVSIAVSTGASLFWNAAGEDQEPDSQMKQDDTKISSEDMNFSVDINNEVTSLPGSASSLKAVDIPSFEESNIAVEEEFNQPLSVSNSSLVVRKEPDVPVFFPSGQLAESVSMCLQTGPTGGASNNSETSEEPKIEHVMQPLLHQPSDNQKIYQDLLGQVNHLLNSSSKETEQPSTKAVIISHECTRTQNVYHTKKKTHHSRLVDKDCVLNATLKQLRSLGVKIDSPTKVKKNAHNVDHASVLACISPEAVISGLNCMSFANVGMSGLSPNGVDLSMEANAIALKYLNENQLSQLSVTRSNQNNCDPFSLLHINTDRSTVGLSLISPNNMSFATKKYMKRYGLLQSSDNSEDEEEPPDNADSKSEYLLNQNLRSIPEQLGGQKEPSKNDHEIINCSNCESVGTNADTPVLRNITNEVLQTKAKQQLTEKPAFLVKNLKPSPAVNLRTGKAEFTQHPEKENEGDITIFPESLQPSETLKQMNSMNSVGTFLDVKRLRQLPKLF

[2] = biological target: T2, Myc-GFP-Ana2 (WT) co-expressed with stabilized DmPLK4^SBM-mCherry (D. melanogaster, UniProt Q9XZ31 1-420, phosphorylated in cells by co-expressed DmPLK4^SBM-mCherry; phosphoserine at 38 (a DmPLK4 site by the cited work)); experiment: co-IP; Drosophila S2 cells transfected with Myc-GFP-Ana2 and Flag-DmSas4 in the presence or absence of DmPLK4^SBM-mCherry; harvested 48 hr later; co-immunoprecipitation and immunoblot; details: partners not purified
T2 construct: Ana2, D. melanogaster; it rests on the S38A mutant; also called WT Ana2; phosphorylated Ana2; source: Drosophila S2 cells, transfected together with DmPLK4^SBM-mCherry, in lysate; not shown: Myc, N-terminal, kept; GFP, N-terminal, kept
T2 sequence (looked up): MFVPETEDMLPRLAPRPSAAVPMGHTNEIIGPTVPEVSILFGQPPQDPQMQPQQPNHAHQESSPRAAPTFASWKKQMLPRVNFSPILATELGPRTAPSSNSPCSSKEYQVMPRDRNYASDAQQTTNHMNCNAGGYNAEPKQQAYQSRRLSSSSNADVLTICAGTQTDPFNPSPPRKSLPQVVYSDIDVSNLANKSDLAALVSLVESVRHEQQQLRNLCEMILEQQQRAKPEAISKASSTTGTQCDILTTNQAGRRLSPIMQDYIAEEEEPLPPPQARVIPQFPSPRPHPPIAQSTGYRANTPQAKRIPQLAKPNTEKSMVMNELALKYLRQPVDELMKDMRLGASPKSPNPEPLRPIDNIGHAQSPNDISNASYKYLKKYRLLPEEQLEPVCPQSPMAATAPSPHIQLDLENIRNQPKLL

B1: FLAG-CPAP (natural protein, human, UniProt Q9HC77 1-1338, looked up)
chain: MFLMPTSSELNSGQNFLTQWMTNPSRAGVILNRGFPILEADKEKRAAVDISTSFPIKGTHFSDSFSFINEEDSLLEEQKLESNNPYKPQSDKSETHTAFPCIKKGPQVAACHSAPGHQEENKNDFIPDLASEFKEGAYKDPLFKKLEQLKEVQQKKQEQLKRQQLEQLQRLMEEQEKLLTMVSGQCTLPGLSLLPDDQSQKHRSPGNTTTGERATCCFPSYVYPDPTQEETYPSNILSHEQSNFCRTAHGDFVLTSKRASPNLFSEAQYQEAPVEKNNLKEENRNHPTGESILCWEKVTEQIQEANDKNLQKHDDSSEVANIEERPIKAAIGERKQTFEDYLEEQIQLEEQELKQKQLKEAEGPLPIKAKPKQPFLKRGEGLARFTNAKSKFQKGKESKLVTNQSTSEDQPLFKMDRQQLQRKTALKNKELCADNPILKKDSKARTKSGSVTLSQKPKMLKCSNRKSLSPSGLKIQTGKKCDGQFRDQIKFENKVTSNNKENVTECPKPCDTGCTGWNKTQGKDRLPLSTGPASRLAAKSPIRETMKESESSLDVSLQKKLETWEREKEKENLELDEFLFLEQAADEISFSSNSSFVLKILERDQQICKGHRMSSTPVKAVPQKTNPADPISHCNRSEDLDHTAREKESECEVAPKQLHSLSSADELREQPCKIRKAVQKSTSENQTEWNARDDEGVPNSDSSTDSEEQLDVTIKPSTEDRERGISSREDSPQVCDDKGPFKDTRTQEDKRRDVDLDLSDKDYSSDESIMESIKHKVSEPSRSSSLSLSKMDFDDERTWTDLEENLCNHDVVLGNESTYGTPQTCYPNNEIGILDKTIKRKIAPVKRGEDLSKSRRSRSPPTSELMMKFFPSLKPKPKSDSHLGNELKLNISQDQPPGDNARSQVLREKIIELETEIEKFKAENASLAKLRIERESALEKLRKEIADFEQQKAKELARIEEFKKEEMRKLQKERKVFEKYTTAARTFPDKKEREEIQTLKQQIADLREDLKRKETKWSSTHSRLRSQIQMLVRENTDLREEIKVMERFRLDAWKRAEAIESSLEVEKKDKLANTSVRFQNSQISSGTQVEKYKKNYLPMQGNPPRRSKSAPPRDLGNLDKGQAASPREPLEPLNFPDPEYKEEEEDQDIQGEISHPDGKVEKVYKNGCRVILFPNGTRKEVSADGKTITVTFFNGDVKQVMPDQRVIYYYAAAQTTHTTYPEGLEVLHFSSGQIEKHYPDGRKEITFPDQTVKNLFPDGQEESIFPDGTIVRVQRDGNKLIEFNNGQRELHTAQFKRREYPDGTVKTVYANGHQETKYRSGRIRVKDKEGNVLMDTEL
notes: CPAP (CENPJ), human; also called CENPJ; source: HEK293FT, transfected, in lysate; not shown: FLAG, N-terminal, kept
- fold increase in the amount of CPAP bound, kinase active against kinase inactive PLK4 [1]: > 7 fold

B2: Flag-DmSas4 (natural protein, D. melanogaster, UniProt Q9VI72 1-901, looked up)
chain: MQEAGESPVGMPLSQEAIAQRLAALSRWQDEQKRLLQERQSNHRVLLGLEQRNMYKMLGLLHQETESHENSVLEEWDEEHSIQMPRLAADPDEHEPEISMADPQPAKPKRPFLRRGEGLKQRFKINPDQLRLENLPRYKFANAHPQFRTPQMKKGILKKQVKSPPNPAPPPAPKPSAQLDDLNEQRFQQMLIGKNACSSTPDLKSSYASSTTASSTSPRVRFVEQKSRAGQTTHADDEASSEASPMTGVCWAKVLDTQSIKPAQIQRRSAQIRVEDDSNVSIFELLEQKATEGNIDMNSSCIRTFMARKDQRRRVADDSDHIVVTQQVRQMRLQPQVDQMLVQELQEGDEEDTEPSSDQTLTMTPIQVGNTKVRVRFSDSNDTHEYSDATSLNDGSNIQLFEQFKSALFQALEQKKKSSPSKESDEPITKDLQEKANLVRTRLEELETEIATFKEQNAQLLRLRQQHELEKAKCTQDHMEAMERVHDEKIQAEIYLHDERMKIEEERRKFEQQMRLQKSNANSKEKKEIAALKQEVEGLQLQLKQKEQAHVSAQARLRAQLRASEKEQRNYRDEIELLRKENKRLEQELVKIGRENNSKMLQEINRNIARLAPKVLPSATMSDILDENGRRTQSLDGTAGKPAKQREAQNRRQSSGSAQVRSRSRSLSRNKKTPYALDESYASSSSVESEEVQPPVTAPKAATPPPAANSSSDFKREITNADGSKDIWYPNGNLKKISADGMNLRMLYFNKDIKETNIREGTVKYYYAETNTWHTSYLDGLEILEFPNGQTEHRRKDGTVEIHFPNNSIKIVDPSDTEKLEEWRYADGTHLVQLRNGDKILNLPNGQKEIHTKLNKRREYPDGTVKLVYPDGSQETRYSNGRVRLKDKDGKLIMDTDYAKY
notes: Sas-4 (DmSas4), D. melanogaster; also called CPAP orthologue DmSas4; source: Drosophila S2 cells, transfected, in lysate; not shown: FLAG, N-terminal, kept
- fold increase in the amount of DmSas4 bound, with against without DmPLK4^SBM [2]: > 6 fold
